Numbering of substitutions follows the chain as printed. In names and notes the source's numbering stands. Where two headings read alike, the source gives them in different places.
B1: Listeria innocua integrase (LI Int), wild type, full length (enzyme, Listeria innocua (prophage), UniProt Q928V6 1-452, looked up)
chain: MKAAIYIRVSTQEQVENYSIQAQTEKLTALCRSKDWDVYDTFIDGGYSGSNMNRPALNEMLSKLHEIDAVVVYRLDRLSRSQKDTITLIEEYFLKNNVEFVSLSETLDTSSPFGRAMIGILSVFAQLERETIRDRMVMGKIKRIEAGLPLTTAKGRTFGYDVIDTKLYINEEEAKQLRLIYDIFEEEQSITFLQKRLKKLGFKVRTYNRYNNWLTNDLYCGYVSYKDKVHVKGIHEPIISEEQFYRVQEIFSRMGKNPNMNKESASLLNNLVVCSKCGLGFVHRRKDTVSRGKKYHYRYYSCKTYKHTHELEKCGNKIWRADKLEELIIDRVNNYSFASRNIDKEDELDSLNEKLKIEHAKKKRLFDLYINGSYEVSELDSMMNDIDAQINYYEAQIEANEELKKNKKIQENLADLATVDFNSLEFREKQLYLKSLINKIYIDGEQVTIEWL
B2: LI Int CTD Y369A (133-452) (domain or fragment, Listeria innocua (prophage), UniProt Q928V6 133-452, looked up)
chain: RDRMVMGKIKRIEAGLPLTTAKGRTFGYDVIDTKLYINEEEAKQLRLIYDIFEEEQSITFLQKRLKKLGFKVRTYNRYNNWLTNDLYCGYVSYKDKVHVKGIHEPIISEEQFYRVQEIFSRMGKNPNMNKESASLLNNLVVCSKCGLGFVHRRKDTVSRGKKYHYRYYSCKTYKHTHELEKCGNKIWRADKLEELIIDRVNNYSFASRNIDKEDELDSLNEKLKIEHAKKKRLFDLAINGSYEVSELDSMMNDIDAQINYYEAQIEANEELKKNKKIQENLADLATVDFNSLEFREKQLYLKSLINKIYIDGEQVTIEWL
B3: His6Flag-Smt3-CC-I fusion of the LI Int coiled-coil domain (345-405) (domain or fragment, Listeria innocua (prophage), UniProt Q928V6 345-405, looked up)
chain: EDELDSLNEKLKIEHAKKKRLFDLYINGSYEVSELDSMMNDIDAQINYYEAQIEANEELKK
B4: LI Int isolated coiled-coil domain CC-III (349-400) (domain or fragment, Listeria innocua (prophage), UniProt Q928V6 349-400, looked up)
chain: DSLNEKLKIEHAKKKRLFDLYINGSYEVSELDSMMNDIDAQINYYEAQIEAN
B5: LI Int with the coiled-coil motif deleted, IntΔCC (Δ342-416) (enzyme, Listeria innocua (prophage), UniProt Q928V6 1-452, looked up)
chain: MKAAIYIRVSTQEQVENYSIQAQTEKLTALCRSKDWDVYDTFIDGGYSGSNMNRPALNEMLSKLHEIDAVVVYRLDRLSRSQKDTITLIEEYFLKNNVEFVSLSETLDTSSPFGRAMIGILSVFAQLERETIRDRMVMGKIKRIEAGLPLTTAKGRTFGYDVIDTKLYINEEEAKQLRLIYDIFEEEQSITFLQKRLKKLGFKVRTYNRYNNWLTNDLYCGYVSYKDKVHVKGIHEPIISEEQFYRVQEIFSRMGKNPNMNKESASLLNNLVVCSKCGLGFVHRRKDTVSRGKKYHYRYYSCKTYKHTHELEKCGNKIWRADKLEELIIDRVNNYSFASRNATVDFNSLEFREKQLYLKSLINKIYIDGEQVTIEWL
B6: LI Int carboxy-terminal domain, CTD (133-452) (domain or fragment, Listeria innocua (prophage), UniProt Q928V6 133-452, looked up)
chain: B2 chain with A237Y
B7: LI Int CTD K362A (133-452) (domain or fragment, Listeria innocua (prophage), UniProt Q928V6 133-452, looked up)
chain: B2 chain with K230A, A237Y

What was measured:
AUC [1] = target: the molecule itself; experiment: AUC
AUC [2] = target: the molecule itself; experiment: AUC; remark: listed apart in the source
crystal structure = target: the molecule itself; experiment: crystal structure

Row | Protein | Kd (AUC [1]) [µM] | stoichiometry N (AUC [1]) | Kd (AUC [2]) [µM] | stoichiometry N (AUC [2]) | binding result (crystal structure)
1 | B1 | ≤ 0.032 | 2 | – | – | –
2 | B2 | 289 | 2 | – | – | –
3 | B3 | – | – | 20.1 | 2 | –
4 | SLNEKLKIEHAKKKRLFDLYINGSYEVSELDSMMNDIDAQINYYEAQIEA (domain or fragment, Listeria innocua (prophage), UniProt Q928V6 350-399, looked up) [LI Int isolated coiled-coil domain CC-II (350-399)] | – | – | – | – | binds
5 | B4 | – | – | – | – | binds
6 | B5 | 5.7 | 2 | – | – | –
7 | B6 | 18.8 | 2 | – | – | –
8 | B7 | 45.2 | 2 | – | – | –
